Reference: the supplement of paper PMC9170038

Columns and labels:
MS2 coat protein [1] = assay: apparent KD of MS2 coat protein, switch OFF state (with FMN for OFF switches, without FMN for ON switches); designed switch direction (-1 OFF switch, 1 ON switch): -1; higher = weaker reporter binding; conditions: FMN input: 0 or 200 uM; Eterna round: R93 (includes R88 designs)
Method in brief: (§1)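 Values are apparent KD, taken as the median for each design of fits to normalised binding curves from individual clusters. The designed RNA switches were transcribed on-chip from Illumina sequencing clusters and exposed to SNAP-549-labelled MS2 coat protein at twofold increasing amounts from 0.7 or 1.5 nM to 3 µM. Titration used 100 mM Tris-HCl pH 7.5, 80 mM KCl and 4 mM MgCl2, without or with constant ligand.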

MS2 coat protein [2] = assay: apparent KD of MS2 coat protein, switch ON state; designed switch direction (-1 OFF switch, 1 ON switch): -1; higher = weaker reporter binding; conditions: FMN input: 0 or 200 uM; Eterna round: R93 (includes R88 designs)
Method in brief: as §1

Sequence | apparent KD of MS2 coat protein (MS2 coat protein [1]) [nM] | apparent KD of MS2 coat protein (MS2 coat protein [2]) [nM]
AAAUAGUUAGGAUAUACAUGAGGAUCACCCAUGUGGACUUAUGGAGAAUAGUCUAAUGGUAGAAGGGACUAAAA [EX2 Malc#24] | 45.8 | 69.8
CUCAAGUGAGGAUAUAUAAGAAAAGAAGAGAAAGAAAAGAAAUAGAAGGCACAUGAGGAUCACCCAUGUAAGAA [EteRNA is fun!] | 24.1 | 29.5
GAAAAGUCAGGAUAUGCAGACAAAGCAAAAAAGCAAUGUCUGCAGAAGGGACAUGAGGAUCACCCAUGUAAAAA [Mat - Exclusion 4 - Mayanna - D115] | 45.2 | 51.4
AACUGGGCAGGAUAUACAUGAGGAUCACCCAUGUAAAGAAAAGAAAGGUCCGAGGAAAGUAGAAGGGCCUGGAA [Variant 5 of Mod 1 of Ex3 sub 3, by Tesla's Dusciple Round 1] | 38.9 | 40.6
AAGAAGGUAGGAUAUACUAAAGAAACUAAUGCAAAGAUAAAACAUGAGGAUCACCCAUGUAGAAGGGCCAGAAA [JR_Exc002_Sub016] | 25.1 | 35.6
AAAAAACAUGAGGAUCACCCAUGUUAGGAUAUUCCUAAAAAAAAAAAAAAAAAAAAUGGAAGAAGGGACAAAAA [excalibur 9] | 20.6 | 21.2
AAGAGGUGAGGAUAUCGAAGAAGAAGAAGAAGAAGAAGAAACGAGAAGGCACAUGAGGAUCACCCAUGUAAGAA [Exclusion 4] | 18.8 | 23.4
CUCAAGUAAGGAUAUUGAAGAAAAGAAGAGAAAGAAAAGAACAAGAAGGUACAUGAGGAUCACCCAUGUAAGAA [EteRNA is fun!] | 16.6 | 33.4
AAUAAAGGAGGAUAUACUAAAGAAAUGAAAAGAAAUAAAGAACAUGAGGAUCACCCAUGUAGAAGGCCUAAUAA [Yaqub-Har] | 22.8 | 31.3
AACAGUACAGGAUAUACAUGAGGAUCACCCAUGUGAGAAUUAAGCAGCGUAACACACAGUAGAAGGGUAAUGGA [Ruby 20] | 40.7 | 46.4
AGAUGACAUGAGGAUCACCCAUGUAAGGAUAUACGAGUAGGAGAAUAAAAUGAUAGAAGUAGAAGGUACGUAGA ['Exclusion 1' Lab (2)] | 58.1 | 68
AGCAAGUGAGGAUAUCUGGAUAGGAAAAAGAAAACCUAUCCAGAGAAGGCACAUGAGGAUCACCCAUGUAAAAA [JL cataway mod 7] | 41.4 | 39.1
AAGAAGUCAGGAUAUGCCAGAGAUCACGAAAGUGACGAGUAGCAGAAGGGACAUGAGGAUCACCCAUGUAAAGA [Opal 7] | 45 | 39.8
AGUCUGAGAGGAUAUACAUGGGAAAAAAAAGUCAGAUCCCUACAUGAGGAUCACCCAUGUAGAAGGCUCUGACA [Ex2 Design 147: Sub-opt 11] | 11.4 | 22.2
GUGGAACAUGAGGAUCACCCAUGUGAGGAUAUAGGUUUUUGGGAAAAACUAGGAGAAACUAGAAGGCGCAAGAA [Exclusion 1.1] | 22 | 26.2
CUCAAGUCAGGAUAUUUAAGAAAAGAAGAGAAAGAAAAGAAAAAGAAGGGACAUGAGGAUCACCCAUGUAAGAA [EteRNA is fun!] | 41.3 | 60.4
AAAGCUGAAGGAUAUACUUGGAAAAAAAAAAAAAAAAAAAAACAUGAGGAUCACCCAUGUAGAAGGUCAGAUAA [Mat - Mod] | 36.7 | 41.1
CCUGUGUGAGGAUAUGGUAAAAAAAAAAAAAAAAAGCUCCUCCAGAAGGCACAUGAGGAUCACCCAUGUCGUGG [Jolly's Folly 15 - Jieux - Exclusion 4] | 38.2 | 18.9
AAAAACUGAGGAUAUACAUGAGGAUCACCCAUGUGAAAGAACGAAAAACGAAAAGCAAGUAGAAGGCAGAAAAA [Ruby 77] | 26.1 | 20.9
AGUGAGUGAGGAUAUUACUGAAGAAUAAAAGAAAUAACGAGUAAGAAGGCACAUGAGGAUCACCCAUGUACACA [May 62] | 24 | 25.5
AAAAAACAUGAGGAUCACCCAUGUGAGGAUAUCCAGAAGGGAAUAAAAUAACACGAAAGGAGAAGGCACAAAAA [Ex 1 May 36] | 31.7 | 34
